Test results published in US20060024723A1.

Biological target: oncofetal fibronectin (human) (UniProt P02751)
Experiment: lateral flow sandwich; FDC-6 blue latex conjugate and immobilised goat anti-fibronectin; TLiIQ reflectance reader
Conditions: scale: reflectance signal

Chain of UniProt P02751 (P02751 32-2477): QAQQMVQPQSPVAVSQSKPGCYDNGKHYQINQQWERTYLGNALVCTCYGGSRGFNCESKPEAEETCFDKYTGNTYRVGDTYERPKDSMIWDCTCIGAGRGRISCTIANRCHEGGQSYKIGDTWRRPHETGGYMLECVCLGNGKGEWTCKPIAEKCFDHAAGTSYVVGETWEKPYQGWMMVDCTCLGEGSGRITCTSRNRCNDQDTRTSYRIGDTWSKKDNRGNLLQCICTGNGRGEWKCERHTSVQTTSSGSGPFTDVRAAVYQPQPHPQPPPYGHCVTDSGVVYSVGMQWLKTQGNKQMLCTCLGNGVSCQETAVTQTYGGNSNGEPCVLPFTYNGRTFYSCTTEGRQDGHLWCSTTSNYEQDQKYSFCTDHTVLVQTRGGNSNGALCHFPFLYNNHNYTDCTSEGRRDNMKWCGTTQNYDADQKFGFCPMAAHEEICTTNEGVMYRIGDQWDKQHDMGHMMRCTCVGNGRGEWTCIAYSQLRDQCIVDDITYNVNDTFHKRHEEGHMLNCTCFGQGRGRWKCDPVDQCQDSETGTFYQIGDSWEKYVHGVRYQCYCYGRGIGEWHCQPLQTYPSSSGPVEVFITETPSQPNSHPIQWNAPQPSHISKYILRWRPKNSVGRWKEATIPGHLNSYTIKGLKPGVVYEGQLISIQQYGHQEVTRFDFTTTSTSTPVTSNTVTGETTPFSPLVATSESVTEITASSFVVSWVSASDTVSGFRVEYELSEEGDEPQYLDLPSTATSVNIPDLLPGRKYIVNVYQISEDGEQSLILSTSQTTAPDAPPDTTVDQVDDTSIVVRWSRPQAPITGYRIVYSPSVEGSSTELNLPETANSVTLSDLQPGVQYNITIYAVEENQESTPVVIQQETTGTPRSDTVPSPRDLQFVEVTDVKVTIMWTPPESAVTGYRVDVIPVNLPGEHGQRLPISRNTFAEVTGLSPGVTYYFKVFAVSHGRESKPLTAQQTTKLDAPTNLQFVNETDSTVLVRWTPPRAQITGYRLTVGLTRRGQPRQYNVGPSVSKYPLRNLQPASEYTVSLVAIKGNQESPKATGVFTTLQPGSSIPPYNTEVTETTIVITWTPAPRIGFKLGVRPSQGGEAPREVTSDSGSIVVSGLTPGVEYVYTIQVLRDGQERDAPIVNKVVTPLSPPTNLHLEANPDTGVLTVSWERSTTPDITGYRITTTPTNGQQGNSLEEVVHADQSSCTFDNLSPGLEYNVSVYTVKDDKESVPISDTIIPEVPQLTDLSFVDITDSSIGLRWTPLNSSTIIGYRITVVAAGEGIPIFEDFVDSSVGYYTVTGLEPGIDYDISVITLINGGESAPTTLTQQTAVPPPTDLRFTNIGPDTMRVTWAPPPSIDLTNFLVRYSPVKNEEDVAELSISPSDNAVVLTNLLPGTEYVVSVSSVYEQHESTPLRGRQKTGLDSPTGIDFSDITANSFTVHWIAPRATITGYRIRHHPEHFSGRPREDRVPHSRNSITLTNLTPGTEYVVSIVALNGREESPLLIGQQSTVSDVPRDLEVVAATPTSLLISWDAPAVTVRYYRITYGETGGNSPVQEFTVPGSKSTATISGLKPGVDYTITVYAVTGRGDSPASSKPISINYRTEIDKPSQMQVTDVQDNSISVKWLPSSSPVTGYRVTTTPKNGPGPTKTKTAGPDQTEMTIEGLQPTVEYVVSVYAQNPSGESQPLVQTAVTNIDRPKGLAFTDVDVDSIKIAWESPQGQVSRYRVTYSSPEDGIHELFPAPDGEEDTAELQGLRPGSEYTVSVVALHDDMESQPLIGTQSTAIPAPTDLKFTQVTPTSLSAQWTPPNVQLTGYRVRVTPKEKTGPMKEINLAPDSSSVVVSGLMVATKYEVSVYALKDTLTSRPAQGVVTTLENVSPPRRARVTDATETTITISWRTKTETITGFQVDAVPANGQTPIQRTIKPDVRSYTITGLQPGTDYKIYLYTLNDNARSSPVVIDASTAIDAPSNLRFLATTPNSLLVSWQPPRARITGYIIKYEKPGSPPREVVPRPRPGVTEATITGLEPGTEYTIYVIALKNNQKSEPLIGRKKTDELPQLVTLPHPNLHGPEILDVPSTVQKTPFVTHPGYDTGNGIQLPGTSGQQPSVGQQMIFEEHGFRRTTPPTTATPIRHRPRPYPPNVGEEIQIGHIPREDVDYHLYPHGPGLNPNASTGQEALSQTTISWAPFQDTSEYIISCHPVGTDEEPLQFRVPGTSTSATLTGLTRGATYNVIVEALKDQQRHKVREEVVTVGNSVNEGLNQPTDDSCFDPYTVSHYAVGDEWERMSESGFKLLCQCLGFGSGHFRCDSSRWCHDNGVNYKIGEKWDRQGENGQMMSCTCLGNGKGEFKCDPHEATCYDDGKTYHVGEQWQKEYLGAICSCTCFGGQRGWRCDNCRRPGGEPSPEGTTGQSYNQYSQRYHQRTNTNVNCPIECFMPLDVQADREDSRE

reflectance signal: 0.315
Substance: monoclonal antibody FDC-6, produced by the hybridoma ATCC HB 9018
